Test results as given in patent publication US9618524B2, “Method, composition, isolation and identification of a plaque particle and related biomarker” (Plaxgen Inc., priority 2012, dated 2017).

How the values were obtained:
Test in all cases: Mass spectroscopy proteomics, semi-quantitative binding affinity of serum proteins (plaqueproteome, Table 2)
Conditions in all cases: higher number = stronger affinity
[1] = molecular target: T1, alpha-synuclein plaque particles (Homo sapiens, UniProt P37840)
T1 construct: 140 amino acids polypeptide
Method in brief: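 AD-subject plasma or serum (800 μL of 50%) mixed with 30 μg preformed alpha-synuclein aggregates for 1 h at 37 °C; Thioflavin S-positive particles isolated by flow sorting. After reduction, acrylamide alkylation and overnight tryptic digestion, serum proteins identified by MS/MS with Sequest and Scaffold.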

[2] = molecular target: T2, Abeta-42 plaque particles (Homo sapiens, UniProt P05067)
T2 construct: Abeta 1-42
Method in brief: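 AD patient serum or plasma (50% in PBS) was incubated with Abeta-42 aggregates (30 μg) for 1 h at 37 °C, then stained with Thioflavin S for 30 min. Labeled particles were FACS-sorted, trypsin/Lys-C digested overnight and analyzed by MS/MS. Sequest searched human UniProt; Scaffold/Protein Prophet validated the identifications.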

Tau plaque particles = system: Tau plaque particles; parameters: species or system human
Method in brief: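 Serum or plasma proteins captured on Thioflavin S-labelled Tau plaque particles (Tau-74, Tau-275 oligomers preformed in PBS at 37° C for 2 h; 1 h co-incubation at 37° C) were isolated by FACS sorting, then tryptically digested and identified by MS/MS (Sequest, human UniProt, strict trypsin).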

[3] = system: Low density cholesterol (Chl small) plaque particles; parameters: species or system human
Method in brief: (§1)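 Serum or plasma from atherosclerotic subjects, as 50% serum, was incubated with 30 μg cholesterol aggregates for 1 h at 37 °C. High- and low-density particles were then flow-sorted, trypsin-digested and analysed by MS/MS. Proteins were identified by Sequest search against human UniProt and validated with Protein Prophet.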

[4] = system: High Density cholesterol (Chl Large) plaque particles; parameters: species or system human
Method in brief: as §1

Row | Molecule | Semi-quantitative analysis of proteins binding to different plaque particles: Synuclein [1] | Semi-quantitative analysis of proteins binding to different plaque particles: Abeta-42 [2] | Semi-quantitative analysis of proteins binding to different plaque particles: Tau (Tau plaque particles) | Semi-quantitative analysis of proteins binding to different plaque particles: Chl small [3] | Semi-quantitative analysis of proteins binding to different plaque particles: Chl Large [4]
1 | Carboxypeptidase N catalytic chain (protein) VTFRHHRYDDLVRTLYKVQNECPGITRVYSIGRSVEGRHLYVLEFSDHPGIHEPLEPEVKYVGNMHGNEALGRELMLQLSEFLCEEFRNRNQRIVQLIQDTRIHILPSMNPDGYEVAAAQGPNKPGYLVGRNNANGVDLNRNFPDLNTYIYYNEKYGGPNHHLPLPDNWKSQVEPETRAVIRWMHSFNFVLSANLHGGAVVANYPYDKSFEHRVRGVRRTASTPTPDDKLFQKLAKVYSYAHGWMFQGWNCGDYFPDGITNGASWYSLSKGMQDFNYLHTNCFEITLELSCDKFPPEEELQREWLGNREALIQFLEQVHQGIKGMVLDENYNNLANAVISVSGINHDVTSGDHGDYFRLLLPGIYTVSATAPGYDPETVTVTVGPAEPTLVNFHLKRSIPQVSPVRRAPSRRHGVRAKVQPQARKKEMEMRQLQRGPA | 0 | 0 | 1 | 0 | 0
2 | Guanine deaminase (protein) MCAAQMPPLAHIFRGTFVHSTWTCPMEVLRDHLLGVSDSGKIVFLEEASQQEKLAKEWCFKPCEIRELSHHEFFMPGLVDTHIHASQYSFAGSSIDLPLLEWLTKYTFPAEHRFQNIDFAEEVYTRVVRRTLKNGTTTACYFATIHTDSSLLLADITDKFGQRAFVGKVCMDLNDTFPEYKETTEESIKETERFVSEMLQKNYSRVKPIVTPRFSLSCSETLMGELGNIAKTRDLHIQSHISENRDEVEAVKNLYPSYKNYTSVYDKNNLLTNKTVMAHGCYLSAEELNVFHERGASIAHCPNSNLSLSSGFLNVLEVLKHEVKIGLGTDVAGGYSYSMLDAIRRAVMVSNILLINKVNEKSLTLKEVFRLATLGGSQALGLDGEIGNFEVGKEFDAILINPKASDSPIDLFYGDFFGDISEAVIQKFLYLGDDRNIEEVYVGGKQVVPFSSSVKETIHLPASSPHPPPFP | 0 | 5 | 0 | 0 | 0
3 | Isoform 2 of Nucleophosmin (protein) MEDSMDMDMSPLRPQNYLFGCELKADKDYHFKVDNDENEHQLSLRTVSLGAGAKDELHIVEAEAMNYEGSPIKVTLATLKMSVQPTVSLGGFEITPPVVLRLKCGSGPVHISGQHLVAVEEDAESEDEEEEDVKLLSISGKRSAPGGGSKVPQKKVKLAADEDDDDDDEEDDDEDDDDDDFDDEEAEEKAPVKKGQESFKKQEKTPKTPKGPSSVEDIKAKMQASIEKGGSLPKVEAKFINYVKNCFRMTDQEAIQDLWQWRKSL | 0 | 4 | 0 | 0 | 0
4 | Dermcidin (protein) YDPEAASAPGSGNPCHEASAAQKENAGEDPGLARQAPKPRKQRSSLLEKGLDGAKKAVGGLGKLGKDAVEDLESVGKGAVHDVKDVLDSVL | 0 | 2 | 0 | 0 | 0
5 | Apolipoprotein M (protein) MFHQIWAALLYFYGIILNSIYQCPEHSQLTTLGVDGKEFPEVHLGQWYFIAGAAPTKEELATFDPVDNIVFNMAAGSAPMQLHLRATIRMKDGLCVPRKWIYHLTEGSTDLRTEGRPDMKTELFSSSCPGGIMLNETGQGYQRFLLYNRSPHPPEKCVEEFKSLTSCLDSKAFLLTPRNQEACELSNN | 0 | 18 | 0 | 0 | 0
6 | Isoform 2 of Haptoglobin-related protein (protein) MHVCVCVCVCVYMPVCVDACMCCEAGRPAFRSFLFSLCSDLGAVISLLLWGRQLFALYSGNDVTDISDDRFPKPPEIANGYVEHLFRYQCKNYYRLRTEGDGVYTLNDKKQWINKAVGDKLPECEAVCGKPKNPANPVQRILGGHLDAKGSFPWQAKMVSHHNLTTGATLINEQWLLTTAKNLFLNHSENATAKDIAPTLTLYVGKKQLVEIEKVVLHPNYHQVDIGLIKLKQKVLVNERVMPICLPSKNYAEVGRVGYVSGWGQSDNFKLTDHLKYVMLPVADQYDCITHYEGSTCPKWKAPKSPVGVQPILNEHTFCVGMSKYQEDTCYGDAGSAFAVHDLEEDTWYAAGILSFDKSCAVAEYGVYVKVTSIQHWVQKTIAEN | 14 | 11 | 11 | 12 | 15
7 | Peroxiredoxin-1 (protein) SSGNAKIGHPAPNFKATAVMPDGQFKDISLSDYKGKYVVFFFYPLDFTFVCPTEIIAFSDRAEEFKKLNCQVIGASVDSHFCHLAWVNTPKKQGGLGPMNIPLVSDPKRTIAQDYGVLKADEGISFRGLFIIDDKGILRQITVNDLPVGRSVDETLRLVQAFQFTDKHGEVCPAGWKPGSDTIKPDVQKSKEYFSKQK | 0 | 5 | 0 | 0 | 0
8 | Catalase (protein) ADSRDPASDQMQHWKEQRAAQKADVLTTGAGNPVGDKLNVITVGPRGPLLVQDVVFTDEMAHFDRERIPERVVHAKGAGAFGYFEVTHDITKYSKAKVFEHIGKKTPIAVRFSTVAGESGSADTVRDPRGFAVKFYTEDGNWDLVGNNTPIFFIRDPILFPSFIHSQKRNPQTHLKDPDMVWDFWSLRPESLHQVSFLFSDRGIPDGHRHMNGYGSHTFKLVNANGEAVYCKFHYKTDQGIKNLSVEDAARLSQEDPDYGIRDLFNAIATGKYPSWTFYIQVMTFNQAETFPFNPFDLTKVWPHKDYPLIPVGKLVLNRNPVNYFAEVEQIAFDPSNMPPGIEASPDKMLQGRLFAYPDTHRHRLGPNYLHIPVNCPYRARVANYQRDGPMCMQDNQGGAPNYYPNSFGAPEQQPSALEHSIQYSGEVRRFNTANDDNVTQVRAFYVNVLNEEQRKRLCENIAGHLKDAQIFIQKKAVKNFTEVHPDYGSHIQALLDKYNAEKPKNAIHTFVQSGSHLAAREKANL | 0 | 12 | 0 | 0 | 0
9 | Serpin B12 (protein) MDSLVTANTKFCFDLFQEIGKDDRHKNIFFSPLSLSAALGMVRLGARSDSAHQIDEVLHFNEFSQNESKEPDPCLKSNKQKAGSLNNESGLVSCYFGQLLSKLDRIKTDYTLSIANRLYGEQEFPICQEYLDGVIQFYHTTIESVDFQKNPEKSRQEINFWVECQSQGKIKELFSKDAINAETVLVLVNAVYFKAKWETYFDHENTVDAPFCLNANENKSVKMMTQKGLYRIGFIEEVKAQILEMRYTKGKLSMFVLLPSHSKDNLKGLEELERKITYEKMVAWSSSENMSEESVVLSFPRFTLEDSYDLNSILQDMGITDIFDETRADLTGISPSPNLYLSKIIHKTFVEVDENGTQAAAATGAVVSERSLRSWVEFNANHPFLFFIRHNKTQTILFYGRVCSP | 0 | 2 | 0 | 0 | 0
